According to the DeepSol protein solubility set:

Assay: soluble on expression in E. coli; label from the status in PepcDB or PDB records

| Sequence | soluble on expression in E. coli |
| --- | --- |
| SMYMSNPTVRIAFVGKYLQDAGDTYFSVLQCFEHCQIALQVRLDILYVDSEELEGPNADEARKALLGCDGIFVPGGFGNRGVDGKCAAAQVARMNNIPYFGVCLGMQVAVIELSRNVVGWSDANSEEFNKESTHQVVRIMDCDRNKMGANMHLGACDVYIVEKSSIMAKIYSKSNIVVERHRHRYEVNTAYFEDLRKAGLCISAVTDPTFSSRCRVEAVENPSLRFFLAVQFHPEFISTPMDPAPTYLSFMAAAAKKDYVWPQKCSQRRLKQA | soluble |
| SNAERRLCAILAADMAGYSRLMERNETDVLNRQKLYRRELIDPAIAQAGGQIVKTTGDGMLARFDTAQAALRCALEIQQAMQQREEDTPRKERIQYRIGINIGDIVLEDGDIFGDAVNVAARLEAISEPGAICVSDIVHQITQDRVSEPFTDLGLQKVKNITRPIRVWQWVPDADRDQSHDPQPSHVQH | soluble |
| SNAIAVGSERSADGKGMLLANPHFPWNGAMRFYQMHLTIPGRLDVMGASLPGLPVVNIGFSRHLAWTHTVDTSSHFTLYRLALDPKDPRRYLVDGRSLPLEEKSVAIEVRGADGKLSRVEHKVYQSIYGPLVVWPGKLDWNRSEAYALRDANLENTRVLQQWYSINQASDVADLRRRVEALQGIPWVNTLAADEQGNALYMNQSVVPYLKPELIPACAIPQLVAEGLPALQGQDSRCAWSRDPAAAQAGITPAAQLPVLLRRDFVQNSNDSAWLTNPASPLQGFSPLVSQEKPIGPRARYALSRLQGKQPLEAKTLEEMVTANHVFSADQVLPDLLRLCRDNQGEKSLARACAALAQWDRGANLDSGSGFVYFQRFMQRFAELDGAWKEPFDAQRPLDTPQGIALDRPQVATQVRQALADAAAEVEKSGIPDGARWGDLQVSTRGQERIAIPGGDGHFGVYNAIQSVRKGDHLEVVGGTSYIQLVTFPEEGPKARGLLAFSQSSDPRSPHYRDQTELFSRQQWQTLPFSDRQIDADPQLQRLSIRE | soluble |
| SNAKELIQNIIEESYTDSQFTLSVLSEKLDLSSGYLSIMFKKNFGIPFQDYLLQKRMEKAKLLLLTTELKNYEIAEQVGFEDVNYFITKFKKYYQITPKQYRE | soluble |
| SNAMDLQLSKRLQKVANYVPKGARLLDVGSDHAYLPIFLLQMGYCDFAIAGEVVNGPYQSALKNVSEHGLTSKIDVRLANGLSAFEEADNIDTITICGMGGRLIADILNNDIDKLQHVKTLVLQPNNREDDLRKWLAANDFEIVAEDILTENDKRYEILVVKHGHMNLTAKELRFGPFLLSNNTTVFKEKWQNELNKLTFALNSIPNSKMEERAILEDKIQDIKEVLDES | soluble |
| SNAMDMVTVTAKTVEEAVTKALIELQTTSDKLTYEIVEKGSAGFLGIGSKPAIIRAKRKETLQDKAIEFLEQVFDAMNMAVDISVEYNETEKEMNVNLKGDDMGILIGKRGQTLDSLQYLVSLVVNKSSSDYIRVKLDTENYRERRKETLETLAKNIAYKVKRTKRSVSLEPMNPYERRIIHAALQNDKYVVTRSDGEEPFRHVIISLKRENRRDRNDRSDRNEK | soluble |
| SNAMGKKIRTEEVDHLFEAILCLKNKEECYTFFEDVCTINELLSLSQRFEVAKMLTDKRTYLDISEKTGASTATISRVNRSLNYGNDGYEMVFSRMKEKETAGKTEE | soluble |
| SNAMIRNIVFDLGGVLIHLNREESIRRFKAIGVADIEEMLDPYLQKGLFLDLESGRKSEEEFRTELSRYIGKELTYQQVYDALLGFLEEISAEKFDYIDSLRPDYRLFLLSNTNPYVLDLAMSPRFLPSGRTLDSFFDKVYASCQMGKYKPNEDIFLEMIADSGMKPEETLFIDDGPANVATAERLGFHTYCPDNGENWIPAITRLLREQK | soluble |
| SNAMKIAVINGGTRSGGNTDVLAEKAVQGFDAEHIYLQKYPIQPIEDLRHAQGGFRPVQDDYDSIIERILQCHILIFATPIYWFGMSGTLKLFIDRWSQTLRDPRFPDFKQQMSVKQAYVIAVGGDNPKIKGLPLIQQFEHIFHFMGMSFKGYVLGEGNRPGDILRDHQALSAASRLLKRSDAI | soluble |
| SNAMKKKDMNKQVKIQDAVAAIILAEGPAGVSTTKVAKRVGIAQSNVYLYFKNKQALIDSVYARETNRILSTTDLDRLSDSTIDVTTRIRLYVQQVYDYSLANPDSLTIIQQIKALNGQGMTISAADADPNNIVANLLTAAIDAKVIKQLPVSLHMGVVFSTIHTHTTNISKGRYAQDQYTFGDIFQMIWDAMKQD | soluble |
| SNAMKLMDVHVLFSGGKDSSLSAVILKKLGYNPHLITINFGVIPSYKLAEETAKILGFKHKVITLDRKIVEKAADMIIEHKYPGPAIQYVHKTVLEILADEYSILADGTRRDDRVPKLSYSEIQSLEMRKNIQYITPLMGFGYKTLRHLASEFFILEEIKSGTKLSSDYEAEIRHILKERGESPEKYFPEHKQTRVVGLKKEI | soluble |
| SNAMKQAIGFIDSGVGGLTVVREVLKQLPHEQVYYLGDTARCPYGPRDKEEVAKFTWEMTNFLVDRGIKMLVIACNTATAAALYDIREKLDIPVIGVIQPGSRAALKATRNNKIGVLGTLGTVESMAYPTALKGLNRRVEVDSLACPKFVSVVESGEYKSAIAKKVVAESLLPLKSTKIDTVILGCTHYPLLKPIIENFMGDGVAVINSGEETASEVSALLDYHNLLDATDEEIEHRFFTTGSTQIFKDIAKDWLNMPDMTVEHIKLGK | soluble |
| SNAMNPIEFWFDFSSGYAFFAAQRIEALAAELGRTVLWRPYMLGAAFSVTGARGLSSTPLKRDYAQRDWARIARQRGLTFRPPADHPHVALAATRAFYWIEAQSPDAATAFAQRVFDLYFSDRLDTASPEAVSRLGPEVGLEPEALLAGIADPALKETVRKIGEDAVARGIFGSPFFLVDDEPFWGWDRMEMMAEWIRTGGW | soluble |
| SNAMPVRVIVDSSACLPTHVAEDLDITVINLHVMNNGEERSTSGLSSLELAASYARQLERGGDDGVLALHISKELSSTWSAAVTAAAVFDDDSVRVVDTSSLGMAVGAAAMAAARMAKDGASLQECYDIAVDTLKRSETWIYLHRIDEIWKSGRISTATAMVSTALATRPIMRFNGGRMEIAAKTRTQSKAFAKLVELAQIRADGEPVFIAIGQNEAREAAKQLEELLRNALPEGSSFMSVDIDPTLAVHSGPGAVSVSAVFANQAPELSTGKAGAK | soluble |
| SNAMQRANREHLEIISLEEISMLVSSDFDLPEVLQHVTAKVATQLKVSVCNIYLREGDEVVLAATHGFDPAFIGKIRIKIGDGITGSVARDGQYISLSRASQDPRYRYFPELQEEKYNSMLSFPIGDKKEVYGVINLNTTSIRSFHEDEIYFVSIIANLILTAIKLRQQVASSRKAAEASA | soluble |
| SNAMSKQLLALNIDGALLRSNGKIHQATKDAIEYVKKKGIYVTLVTNRHFRSAQKIAKSLKLDAKLITHSGAYIAEKIDAPFFEKRISDDHTFNIVQVLESYQCNIRLLHEKYSIGNKKKVNSNLLGKALIHPSDPIFYPVQFVESLSDLLMDEPVSAPVIEVYTEHDIQHDITETITKAFPAVDVIRVNDEKLNIVPKGVSKEAGLALVASELGLSMDDVVAIGHQYDDLPMIELAGLGVAMGNAVPEIKRKADWVTRSNDEQGVAYMMKEYFRMQQRKGFLDKFHMKR | soluble |
| SNAMSQEAFENKLYANLEAVIDPELGVDIVNLGLVYDVTADENNNAVITMTMTSIGCPMAGQIVSDVKKVLSTNVPEVNEIEVNVVWNPPWSKERMSRMAKIALGIRD | soluble |
| SNAMYKEGACLYRNPLRSKSDVKDWRMEGGGQISFDDHSLHLSHVQDEAHFVFWCPETFPDGIIVTWDFSPIEQPGLCMLFFAAAGIRGEDLFDPSLRKRTGTYPEYHSGDINALHLSYFRRKYAEERAFRTCNLRKSRGFHLAAMGADPLPSPDDADSPYRMKLIKDKGYVHFSINGLPILEWMDDGSTYGPVLTKGKIGFRQMAPMKAVYRDFAVHQAVRR | soluble |
| SNANEAQQYYLDADEAEAWIGEQELYVISDEIPKDEEGAIVMLKRHLRQQRAVEDYGRNIKQLASRAQGLLSAGHPEGEQIIRLQGQVDKHYAGLKDVACERKRKLENMYHLFQLKRETDDLEQWISEKELVASSPEMGQDFDHVTLLRDKFRDFARETGAIGQERVDNVNAFIERLIDAGHSEAATIAEWKDGLNEMWADLLELIDTRMQLLAASYDLHRYFYTGAEILGLIDEKHRELPEDVGLDASTAESFHRVHTAFERDVHLLGVQVQQFQDVATRLQTAYAGEKAEAIQNKEQEVSAAWQALLDACAGRRTQLVDTADKF | soluble |
| SNATKTIHNARYQALLDLLLEARSAAGITQKELAARLGRPQSFVSKTENAERRLDVIEFMDFCRGIGTDPYALLSKLEAMTPS | soluble |
| SNQKIASIEQLSNNEGIISALAFDQRGALKRMMAKHQTEEPTVAQIEQLKVLVAEELTQYASSILLDPEYGLPASDARNKDCGLLLAYEKTGYDVNAKGRLPDCLVEWSAKRLKEQGANAVKFLLYYDVDDAEEINIQKKAYIERIGSECVAEDIPFFLEVLTYDDNIPDNGSVEFAKVKPRKVNEAMKLFSEPRFNVDVLKVEVPVNMKYVEGFAEGEVVYTKEEAAQHFKDQDAATHLPYIYLSAGVSAELFQETLKFAHEAGAKFNGVLCGRATWSGAVQVYIEQGEDAAREWLRTTGFKNIDDLNKVLKDTATSWKQ | not soluble |
| SNRTSAKSNLMLILLGLQMKEISNSDLYKLKEVRSVVTSLASFLFQQQNVGVMKSFDSLEKEAFRDLVNRLVSQGLIGLKDKTSETFDLLPLKNLFEYAEKRISVLMKLQCYTGTVQLSHVQEKLHLPYITTNGIVDVFKECLKRTKKQYPEVLKNWWIDLDPKNGMEDQNSGILLHLEYAAAYS | soluble |
| SNYLDQMEEYDKVEEISRKHKHNCFCIQEVVSGLRQPVGALHSGDGSQRLFILEKEGYVKILTPEGEIFKEPYLDIHKLVQSGIKGGDERGLLSLAFHPNYKKNGKLYVSYTTNQERWAIGPHDHILRVVEYTVSRKNPHQVDLRTARVFLEVAELHRKHLGGQLLFGPDGFLYIILGDGMITLDDMEEMDGLSDFTGSVLRLDVDTDMCNVPYSIPRSNPHFNSTNQPPEVFAHGLHDPGRCAVDRHPTDININLTILCSDSNGKNRSSARILQIIKGKDYESEPSLLEFKPFSNGPLVGGFVYRGCQSERLYGSYVFGDRNGNFLTLQQSPVTKQWQEKPLCLGTSGSCRGYFSGHILGFGEDELGEVYILSSSKSMTQTHNGKLYKIVDPKRPLMPEECRATVQPAQTLTSECSRLCRNGYCTPTGKCCCSPGWEGDFCRTAKCEPACRHGGVCVRPNKCLCKKGYLGPQCEHHHHHH | soluble |
| SPAPNQPAAKKTLDSTPAQDKPPQPNSQGKKLASVALLLVLALGAGFAYVHQQQKSEFNNQLQAVRAELKQTRDALNAQLEQTVSKATSQATEITHRAETVLEQQQKSIESLQLAVADIKGRRPNDWLLAEADYLVKLAGRKLFLEHDVETATQLMESADQRIAALNDPSLTALRKAMANDITTLKNIPLIDRDGLVLRLISLQQQIDSLPLANAILPADQPQTSQAVSENIDDWQTNLKNSLKAFADNFITFRSRDGNVIPLLSPTQHFYLRENLQAKLETAIKGVYTEQQTLYRIALDTAAQWSTSFFNPDDKAVQSFNAALAQLAEQQVQVEYPVKLQAQQQLADVINERLRRSVSPLTTGA | not soluble |
